T1: human EphB3 (human, UniProt P54753 34-998)
T1 construct: whole, on cells; also called Eph receptor B3
T1 sequence (looked up): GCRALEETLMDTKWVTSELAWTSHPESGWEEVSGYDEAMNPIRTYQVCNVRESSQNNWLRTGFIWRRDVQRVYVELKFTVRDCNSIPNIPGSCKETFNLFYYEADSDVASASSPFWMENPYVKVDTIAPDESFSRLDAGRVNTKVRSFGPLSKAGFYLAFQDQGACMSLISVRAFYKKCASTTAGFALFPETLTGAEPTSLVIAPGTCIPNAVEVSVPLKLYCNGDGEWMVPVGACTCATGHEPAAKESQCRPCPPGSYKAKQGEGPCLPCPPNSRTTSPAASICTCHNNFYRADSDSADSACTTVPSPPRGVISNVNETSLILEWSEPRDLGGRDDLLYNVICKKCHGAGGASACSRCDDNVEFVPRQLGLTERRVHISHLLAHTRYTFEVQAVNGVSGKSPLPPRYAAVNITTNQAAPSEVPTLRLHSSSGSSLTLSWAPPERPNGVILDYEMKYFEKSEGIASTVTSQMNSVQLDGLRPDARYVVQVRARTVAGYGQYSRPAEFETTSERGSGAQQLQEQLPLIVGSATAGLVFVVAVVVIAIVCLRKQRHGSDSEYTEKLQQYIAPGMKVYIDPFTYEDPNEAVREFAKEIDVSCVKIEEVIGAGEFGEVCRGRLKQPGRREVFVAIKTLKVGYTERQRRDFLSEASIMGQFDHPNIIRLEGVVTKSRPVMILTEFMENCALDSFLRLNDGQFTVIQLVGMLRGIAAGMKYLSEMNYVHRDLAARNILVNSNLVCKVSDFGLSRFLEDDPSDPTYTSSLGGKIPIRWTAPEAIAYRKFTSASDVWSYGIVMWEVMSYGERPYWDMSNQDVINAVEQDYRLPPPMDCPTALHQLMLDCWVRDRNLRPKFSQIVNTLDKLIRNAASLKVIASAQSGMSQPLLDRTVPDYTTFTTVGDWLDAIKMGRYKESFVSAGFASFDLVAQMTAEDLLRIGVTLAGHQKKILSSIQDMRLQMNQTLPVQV


What was measured:
human EphB3 = biological target: T1, human EphB3; test: anti-Myc immunoprecipitation from 293T cells co-expressing RYK, AF-6 and EphB3 (FIG. 4b)
Procedure: Lysis and subsequent analysis of complexes in triple-transfected cells was performed as previously described (13). The inventors prepared embryonic and tissue lysates by Dounce homogenization. The inventors cleared lysates of insoluble debris by centrifugation, and performed immunoprecipitation from cleared lysates containing equal amounts of total protein as assessed by the BCA assay (Pierce). Immune complexes were captured by incubation with protein A-, G- or L-conjugated beads. The mouse anti-RYK monoclonal antibody (IgMₓ isotype⁵) was covalently coupled to CNBr-activated Sepharose 4B (Pharmacia) at 1 mg/ml packed beads for immunoprecipitation or cross-linked it in solution using a goat anti-mouse IgM (Jackson Immunoresearch). The inventors used anti-FLAG monoclonal antibody M2 (Sigma) for immunoprecipitation as an affinity gel and for Western blotting in a biotinylated form. Anti-AF-6 monoclonal antibody (clone 35) was obtained from Transduction Laboratories and anti-Myc monoclonal antibody (clone 9E10) from Zymed Laboratories. Immune complexes were collected by centrifugation and washed three times in HNTG, eluted in 20-50 μL of 2×SDS-PAGE sample buffer containing 10% v/v 2-mercaptoethanol, fractionated by SDS-PAGE and electroblotted to Immobilon P (Millipore) for Western analysis. […]

mouse VEGFR2 = biological target: T2, mouse VEGFR2 (mouse, UniProt P35918 20-1345); test: co-immunoprecipitation from cotransfected 293T cells
T2 construct: whole, on cells
T2 sequence (P35918 20-1345): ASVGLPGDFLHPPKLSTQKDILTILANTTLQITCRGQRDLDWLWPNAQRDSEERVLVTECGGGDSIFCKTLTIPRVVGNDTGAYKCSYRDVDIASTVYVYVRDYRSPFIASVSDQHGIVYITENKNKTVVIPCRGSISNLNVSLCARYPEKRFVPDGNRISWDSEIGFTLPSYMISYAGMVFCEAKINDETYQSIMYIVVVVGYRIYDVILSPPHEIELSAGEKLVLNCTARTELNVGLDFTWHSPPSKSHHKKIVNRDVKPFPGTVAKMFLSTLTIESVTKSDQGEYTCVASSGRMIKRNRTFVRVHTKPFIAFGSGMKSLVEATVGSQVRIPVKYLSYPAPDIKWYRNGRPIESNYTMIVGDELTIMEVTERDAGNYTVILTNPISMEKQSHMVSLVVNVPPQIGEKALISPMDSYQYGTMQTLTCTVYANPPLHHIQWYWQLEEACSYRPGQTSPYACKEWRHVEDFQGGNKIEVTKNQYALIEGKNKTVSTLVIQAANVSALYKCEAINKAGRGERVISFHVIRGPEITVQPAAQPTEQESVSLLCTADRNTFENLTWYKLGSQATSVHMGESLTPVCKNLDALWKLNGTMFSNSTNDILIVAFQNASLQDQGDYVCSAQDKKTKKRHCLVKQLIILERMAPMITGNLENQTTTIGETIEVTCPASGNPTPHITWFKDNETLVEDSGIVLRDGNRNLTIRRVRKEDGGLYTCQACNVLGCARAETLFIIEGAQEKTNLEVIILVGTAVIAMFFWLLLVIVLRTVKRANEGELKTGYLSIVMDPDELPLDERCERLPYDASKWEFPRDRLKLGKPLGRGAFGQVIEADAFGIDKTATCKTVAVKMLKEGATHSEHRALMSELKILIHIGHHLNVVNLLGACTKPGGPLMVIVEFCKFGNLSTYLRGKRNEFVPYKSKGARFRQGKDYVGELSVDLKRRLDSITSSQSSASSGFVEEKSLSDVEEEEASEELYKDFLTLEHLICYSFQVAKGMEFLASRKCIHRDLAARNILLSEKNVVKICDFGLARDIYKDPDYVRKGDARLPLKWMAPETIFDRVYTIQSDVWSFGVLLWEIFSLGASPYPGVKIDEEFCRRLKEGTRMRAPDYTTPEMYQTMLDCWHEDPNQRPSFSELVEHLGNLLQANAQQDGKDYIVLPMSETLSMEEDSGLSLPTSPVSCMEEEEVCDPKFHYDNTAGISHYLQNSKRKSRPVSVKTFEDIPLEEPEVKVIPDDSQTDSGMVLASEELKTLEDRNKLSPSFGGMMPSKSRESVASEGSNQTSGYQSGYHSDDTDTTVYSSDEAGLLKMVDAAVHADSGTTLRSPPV

human EGFR = biological target: T3, human EGFR (human, UniProt P00533 25-1210); test: as above
T3 construct: whole, on cells

mouse TIE2 = biological target: T4, mouse TIE2 (mouse, UniProt Q02858 23-1122); test: as above
T4 construct: whole, on cells
T4 sequence (Q02858 23-1122): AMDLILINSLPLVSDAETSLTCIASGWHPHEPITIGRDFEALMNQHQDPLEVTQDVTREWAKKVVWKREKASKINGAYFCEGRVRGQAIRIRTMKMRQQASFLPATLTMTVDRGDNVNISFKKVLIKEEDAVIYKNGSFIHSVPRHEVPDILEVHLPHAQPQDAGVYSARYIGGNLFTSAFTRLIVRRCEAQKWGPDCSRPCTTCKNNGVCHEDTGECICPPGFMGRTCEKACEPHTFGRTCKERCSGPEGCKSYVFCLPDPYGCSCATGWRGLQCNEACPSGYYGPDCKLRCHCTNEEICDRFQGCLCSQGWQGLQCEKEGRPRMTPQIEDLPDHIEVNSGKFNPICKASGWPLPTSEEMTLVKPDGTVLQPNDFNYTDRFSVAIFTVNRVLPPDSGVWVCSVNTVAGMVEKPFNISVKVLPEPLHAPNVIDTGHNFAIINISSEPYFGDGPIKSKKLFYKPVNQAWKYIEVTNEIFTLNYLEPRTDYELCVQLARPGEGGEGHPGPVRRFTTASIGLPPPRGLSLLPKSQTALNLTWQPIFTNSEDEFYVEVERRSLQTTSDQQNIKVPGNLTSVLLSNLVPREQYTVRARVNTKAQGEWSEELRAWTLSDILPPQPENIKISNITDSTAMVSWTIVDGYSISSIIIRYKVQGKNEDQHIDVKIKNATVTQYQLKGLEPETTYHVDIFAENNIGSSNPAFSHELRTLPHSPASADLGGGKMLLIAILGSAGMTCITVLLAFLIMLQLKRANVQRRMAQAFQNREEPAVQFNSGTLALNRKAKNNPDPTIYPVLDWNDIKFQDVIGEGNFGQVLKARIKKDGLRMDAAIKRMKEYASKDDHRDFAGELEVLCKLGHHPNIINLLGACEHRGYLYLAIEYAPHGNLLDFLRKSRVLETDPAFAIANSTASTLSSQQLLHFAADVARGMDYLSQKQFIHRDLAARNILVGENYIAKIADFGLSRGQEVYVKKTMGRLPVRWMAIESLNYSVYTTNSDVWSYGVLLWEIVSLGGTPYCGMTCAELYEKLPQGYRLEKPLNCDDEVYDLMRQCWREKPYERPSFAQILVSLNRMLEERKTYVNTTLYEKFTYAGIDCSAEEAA

endogenous mouse AF-6 = biological target: T5, endogenous mouse AF-6 (mouse, UniProt Q9QZQ1 1-1820, limits assumed); test: co-immunoprecipitation from mouse tissue lysates, both directions (FIG. 4c)
T5 construct: also called Afadin
T5 sequence (Q9QZQ1 whole entry): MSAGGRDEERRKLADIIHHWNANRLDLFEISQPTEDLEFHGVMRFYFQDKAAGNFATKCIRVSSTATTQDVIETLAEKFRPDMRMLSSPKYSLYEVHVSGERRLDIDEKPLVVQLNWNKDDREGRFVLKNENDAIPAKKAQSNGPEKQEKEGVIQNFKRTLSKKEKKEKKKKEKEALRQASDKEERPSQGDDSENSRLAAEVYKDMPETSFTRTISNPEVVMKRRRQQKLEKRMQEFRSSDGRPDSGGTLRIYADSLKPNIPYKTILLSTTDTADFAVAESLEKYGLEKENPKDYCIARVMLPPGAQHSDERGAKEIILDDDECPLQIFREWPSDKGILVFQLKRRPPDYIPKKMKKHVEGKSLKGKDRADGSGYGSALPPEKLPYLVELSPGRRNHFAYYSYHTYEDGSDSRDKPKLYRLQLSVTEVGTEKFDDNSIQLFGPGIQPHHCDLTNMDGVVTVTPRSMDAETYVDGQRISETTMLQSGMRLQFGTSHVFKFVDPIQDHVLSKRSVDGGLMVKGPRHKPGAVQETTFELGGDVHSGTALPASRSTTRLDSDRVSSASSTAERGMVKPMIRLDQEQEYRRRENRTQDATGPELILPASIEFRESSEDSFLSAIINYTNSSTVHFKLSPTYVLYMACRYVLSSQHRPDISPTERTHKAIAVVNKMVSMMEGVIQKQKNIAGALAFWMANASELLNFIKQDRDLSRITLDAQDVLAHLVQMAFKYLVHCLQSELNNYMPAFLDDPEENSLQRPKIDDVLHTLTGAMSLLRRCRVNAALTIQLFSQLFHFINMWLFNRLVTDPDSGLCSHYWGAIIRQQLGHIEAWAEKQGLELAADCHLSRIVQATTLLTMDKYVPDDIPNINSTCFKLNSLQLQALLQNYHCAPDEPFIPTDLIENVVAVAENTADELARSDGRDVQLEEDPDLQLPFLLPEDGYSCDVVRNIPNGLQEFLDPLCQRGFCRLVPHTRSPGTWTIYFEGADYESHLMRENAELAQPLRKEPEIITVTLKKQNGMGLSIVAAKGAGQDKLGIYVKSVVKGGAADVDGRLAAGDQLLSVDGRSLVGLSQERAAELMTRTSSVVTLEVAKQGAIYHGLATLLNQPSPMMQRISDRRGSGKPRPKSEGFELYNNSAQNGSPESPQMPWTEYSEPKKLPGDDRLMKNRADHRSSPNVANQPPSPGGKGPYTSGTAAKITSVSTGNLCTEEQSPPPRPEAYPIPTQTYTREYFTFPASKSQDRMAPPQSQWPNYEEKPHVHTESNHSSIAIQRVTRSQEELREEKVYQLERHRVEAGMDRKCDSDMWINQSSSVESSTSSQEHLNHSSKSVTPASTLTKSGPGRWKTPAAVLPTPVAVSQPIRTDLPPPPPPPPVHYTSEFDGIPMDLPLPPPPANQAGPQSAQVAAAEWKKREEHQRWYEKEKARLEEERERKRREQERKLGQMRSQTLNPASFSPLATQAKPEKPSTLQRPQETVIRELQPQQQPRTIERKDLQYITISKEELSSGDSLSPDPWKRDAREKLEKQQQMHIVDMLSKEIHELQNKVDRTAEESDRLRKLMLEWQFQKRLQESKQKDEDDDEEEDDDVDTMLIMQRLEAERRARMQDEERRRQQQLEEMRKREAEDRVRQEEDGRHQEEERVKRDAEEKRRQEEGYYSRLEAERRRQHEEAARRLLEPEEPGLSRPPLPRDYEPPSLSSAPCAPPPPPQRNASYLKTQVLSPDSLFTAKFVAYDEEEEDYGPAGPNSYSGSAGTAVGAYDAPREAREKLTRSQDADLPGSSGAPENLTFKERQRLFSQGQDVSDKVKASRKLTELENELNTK

Binder | binding result (human EphB3) | binding result (mouse VEGFR2) | binding result (human EGFR) | binding result (mouse TIE2) | binding result (endogenous mouse AF-6)
Myc2.RYK (double Myc epitope-tagged mouse RYK) (receptor, UniProt Q01887 35-594, looked up, not shown: small tags and cut ends, mature; also called wild-type RYK) RSPALAAAPAGPSVSLYLSEDEVRRLLGLDAELYYVRNDLISHYALSFNLLVPSETNFLHFTWHAKSKVEYKLGFQVDNFVAMGMPQVNISAQGEVPRTLSVFRVELSCTGKVDSEVMILMQLNLTVNSSKNFTVLNFKRRKMCYKKLEEVKTSALDKNTSRTIYDPVHAAPTTSTRVFYISVGVCCAVIFLVAIILAVLHLHSMKRIELDDSISASSSSQGLSQPSTQTTQYLRADTPNNATPITSSSGYPTLRIEKNDLRSVTLLEAKAKVKDIAISRERITLKDVLQEGTFGRIFHGILVDEKDPNKEKQTFVKTVKDQASEVQVTMMLTESCKLRGLHHRNLLPITHVCIEEGEKPMVVLPYMNWGNLKLFLRQCKLVEANNPQAISQQDLVHMAIQIACGMSYLARREVIHRDLAARNCVIDDTLQVKITDNALSRDLFPMDYHCLGDNENRPVRWMALESLVNNEFSSASDVWAFGVTLWELMTLGQTPYVDIDPFEMAAYLKDGYRIAQPINCPDELFAVMACCWALDPEERPKFQQLVQCLTEFHAALGAYV | binds | no binding | no binding | no binding | 
endogenous mouse RYK (receptor, UniProt Q01887 35-594, looked up, also called RYK beta subunit) RSPALAAAPAGPSVSLYLSEDEVRRLLGLDAELYYVRNDLISHYALSFNLLVPSETNFLHFTWHAKSKVEYKLGFQVDNFVAMGMPQVNISAQGEVPRTLSVFRVELSCTGKVDSEVMILMQLNLTVNSSKNFTVLNFKRRKMCYKKLEEVKTSALDKNTSRTIYDPVHAAPTTSTRVFYISVGVCCAVIFLVAIILAVLHLHSMKRIELDDSISASSSSQGLSQPSTQTTQYLRADTPNNATPITSSSGYPTLRIEKNDLRSVTLLEAKAKVKDIAISRERITLKDVLQEGTFGRIFHGILVDEKDPNKEKQTFVKTVKDQASEVQVTMMLTESCKLRGLHHRNLLPITHVCIEEGEKPMVVLPYMNWGNLKLFLRQCKLVEANNPQAISQQDLVHMAIQIACGMSYLARREVIHRDLAARNCVIDDTLQVKITDNALSRDLFPMDYHCLGDNENRPVRWMALESLVNNEFSSASDVWAFGVTLWELMTLGQTPYVDIDPFEMAAYLKDGYRIAQPINCPDELFAVMACCWALDPEERPKFQQLVQCLTEFHAALGAYV |  |  |  |  | binds

— US20040115660A1 (published 2004)
